Laboratory results from US7304127.
Values joined by “and” are separate entries in the source; they are usually repeats but may differ in a detail not shown here. Identical values can stand only once.

B1: CCR5 133-150 (peptide)
peptide: AVFALKARTVTFGVVTSV
modifications: not checked
B2: CCR5 217-234 (peptide)
peptide: ILKTLLRCRNEKKRHRAV
modifications: not checked
B3: CCR5 29-46 (peptide)
peptide: AARLLPPLYSLVFIFGFV
modifications: not checked
B4: CCR5 137-154 (peptide)
peptide: LKARTVTFGVVTSVITWV
modifications: not checked
B5: CCR5 157-174 (peptide)
peptide: VFASLPGIIFTRSQKEGL
modifications: not checked
B6: CCR5 313-330 (peptide)
peptide: QKHIAKRFCKCCSIFQQE
modifications: not checked
B7: CCR5 305-322 (peptide)
peptide: RNYLLVFFQKHIAKRFCK
modifications: not checked
B8: CCR5 253-270 (peptide)
peptide: IVLLLNTFQEFFGLNNCS
modifications: not checked
B9: CCR5 169-186 (peptide)
peptide: SQKEGLHYTCSSHFPYSQ
modifications: not checked
B10: CCR5 185-202 (peptide)
peptide: SQYQFWKNFQTLKIVILG
modifications: not checked
B11: CCR5 13-30 (peptide)
peptide: NYYTSEPCQKINVKQIAA
modifications: not checked
B12: CCR5 273-290 (peptide)
peptide: NRLDQAMQVTETLGMTHC
modifications: not checked
B13: CCR5 181-198 (peptide)
peptide: HFPYSQYQFWKNFQTLKI
modifications: not checked
B14: CXCR4 45-62 (peptide)
peptide: YSIIFLTGIVGNGLVILV
modifications: not checked
B15: CCR5 337-352 (peptide)
peptide: SVYTRSTGEQEISVGL
modifications: not checked
B16: CCR5 205-222 (peptide)
peptide: LPLLVMVICYSGILKTLL
modifications: not checked
B17: CXCR4 9-26 (peptide)
peptide: SDNYTEEMGSGDYDSMKE
modifications: not checked
B18: CCR5 309-326 (peptide)
peptide: LVFFQKHIAKRFCKCCSI
modifications: not checked
B19: CCR5 293-310 (peptide)
peptide: NPIIYAFVGEKFRNYLLV
modifications: not checked
B20: CCR5 261-278 (peptide)
peptide: QEFFGLNNCSSSNRLDQA
modifications: not checked
B21: CCR5 149-166 (peptide)
peptide: SVITWVVAVFASLPGIIF
modifications: not checked
B22: CCR5 173-190 (peptide)
peptide: GLHYTCSSHFPYSQYQFW
modifications: not checked
B23: CCR5 21-38 (peptide)
peptide: QKINVKQIAARLLPPLYS
modifications: not checked
B24: CCR5 333-350 (peptide)
peptide: ERASSVYTRSTGEQEISV
modifications: not checked
B25: CCR5 277-294 (peptide)
peptide: QAMQVTETLGMTHCCINP
modifications: not checked
B26: CCR5 265-282 (peptide)
peptide: GLNNCSSSNRLDQAMQVT
modifications: not checked
B27: CCR5 17-34 (peptide)
peptide: SEPCQKINVKQIAARLLP
modifications: not checked
B28: CCR5 177-194 (peptide)
peptide: TCSSHFPYSQYQFWKNFQ
modifications: not checked
B29: CCR5 257-274 (peptide)
peptide: LNTFQEFFGLNNCSSSNR
modifications: not checked
B30: CCR5 321-338 (peptide)
peptide: CKCCSIFQQEAPERASSV
modifications: not checked
B31: CXCR4 5-22 (peptide)
peptide: SIYTSDNYTEEMGSGDYD
modifications: not checked
B32: CXCR4 29-46 (peptide)
peptide: FREENANFNKIFLPTIYS
modifications: not checked
B33: CCR5 193-210 (peptide)
peptide: FQTLKIVILGLVLPLLVM
modifications: not checked
B34: CCR5 197-214 (peptide)
peptide: KIVILGLVLPLLVMVICY
modifications: not checked
B35: CCR5 245-262 (peptide)
peptide: FLFWAPYNIVLLLNTFQE
modifications: not checked
B36: CCR5 145-162 (peptide)
peptide: GVVTSVITWVVAVFASLP
modifications: not checked
B37: CCR5 281-298 (peptide)
peptide: VTETLGMTHCCINPIIYA
modifications: not checked
B38: STRL33 325-342 (peptide)
peptide: SKTFSASHNVEATSMFQL
modifications: not checked
B39: CCR5 229-246 (peptide)
peptide: KRHRAVRLIFTIMIVYFL
modifications: not checked
B40: CXCR4 21-38 (peptide)
peptide: YDSMKEPCFREENANFNK
modifications: not checked
B41: CCR5 225-242 (peptide)
peptide: RNEKKRHRAVRLIFTIMI
modifications: not checked
B42: CCR5 289-306 (peptide)
peptide: HCCINPIIYAFVGEKFRN
modifications: not checked
B43: CXCR4 13-30 (peptide)
peptide: TEEMGSGDYDSMKEPCFR
modifications: not checked
B44: CCR5 297-314 (peptide)
peptide: YAFVGEKFRNYLLVFFQK
modifications: not checked
B45: CCR5 25-42 (peptide)
peptide: VKQIAARLLPPLYSLVFI
modifications: not checked
B46: STRL33 321-338 (peptide)
peptide: SEDNSKTFSASHNVEATS
modifications: not checked
B47: CCR5 233-250 (peptide)
peptide: AVRLIFTIMIVYFLFWAP
modifications: not checked
B48: CCR5 249-266 (peptide)
peptide: APYNIVLLLNTFQEFFGL
modifications: not checked
B49: CCR5 189-206 (peptide)
peptide: FWKNFQTLKIVILGLVLP
modifications: not checked
B50: CCR5 285-302 (peptide)
peptide: LGMTHCCINPIIYAFVGE
modifications: not checked
B51: CCR5 141-158 (peptide)
peptide: TVTFGVVTSVITWVVAVF
modifications: not checked
B52: CCR5 33-50 (peptide)
peptide: LPPLYSLVFIFGFVGNML
modifications: not checked
B53: CCR5 301-318 (peptide)
peptide: GEKFRNYLLVFFQKHIAK
modifications: not checked
B54: CCR5 269-286 (peptide)
peptide: CSSSNRLDQAMQVTETLG
modifications: not checked
B55: CXCR4 41-58 (peptide)
peptide: LPTIYSIIFLTGIVGNGL
modifications: not checked
B56: CXCR4 33-50 (peptide)
peptide: NANFNKIFLPTIYSIIFL
modifications: not checked
B57: CCR5 153-170 (peptide)
peptide: WVVAVFASLPGIIFTRSQ
modifications: not checked
B58: CXCR4 17-34 (peptide)
peptide: GSGDYDSMKEPCFREENA
modifications: not checked
B59: CXCR4 25-42 (peptide)
peptide: KEPCFREENANFNKIFLP
modifications: not checked
B60: CCR5 317-334 (peptide)
peptide: AKRFCKCCSIFQQEAPER
modifications: not checked
B61: CXCR4 1-18 (peptide)
peptide: MEGISIYTSDNYTEEMGS
modifications: not checked
B62: CCR5 209-226 (peptide)
peptide: VMVICYSGILKTLLRCRN
modifications: not checked
B63: CCR5 329-346 (peptide)
peptide: QEAPERASSVYTRSTGEQ
modifications: not checked
B64: CXCR4 37-54 (peptide)
peptide: NKIFLPTIYSIIFLTGIV
modifications: not checked
B65: CCR5 213-230 (peptide)
peptide: CYSGILKTLLRCRNEKKR
modifications: not checked

Each binder was assayed against HIV-1LAI envelope gp120 labeled with radioactive iodine (HIV-1 LAI), P03377 (assay: 125I-gp120, peptide array).
For B1, the counts minus background (counts per 20 min) was 63.
Work on B2 yielded a counts minus background (counts per 20 min) of 19.
B3 gave a counts minus background (counts per 20 min) of 33.
For B4, the counts minus background (counts per 20 min) was 74.
Binder B5 has a counts minus background (counts per 20 min) of 54.
In the case of B6, the counts minus background (counts per 20 min) is reported as 23.
B7 gave a counts minus background (counts per 20 min) of 65.
With B8 the counts minus background (counts per 20 min) was 2130.
Binder B9 has a counts minus background (counts per 20 min) of 304.
With B10 the counts minus background (counts per 20 min) was 1570.
Work on B11 yielded a counts minus background (counts per 20 min) of 6.
B12 was tested, and the counts minus background (counts per 20 min) was 10.
In the case of B13, the counts minus background (counts per 20 min) is reported as 1010.
B14 was tested, and the counts minus background (counts per 20 min) was 123.
With B15 the counts minus background (counts per 20 min) was 47.
For B16, the counts minus background (counts per 20 min) was 68.
Binder B17 has a counts minus background (counts per 20 min) of 43.
With B18 the counts minus background (counts per 20 min) was 76.
In the case of B19, the counts minus background (counts per 20 min) is reported as 162.
Binder B20 has a counts minus background (counts per 20 min) of 63.
With B21 the counts minus background (counts per 20 min) was 46.
B22 showed a counts minus background (counts per 20 min) of 301.
With B23 the counts minus background (counts per 20 min) was 20.
In the case of B24, the counts minus background (counts per 20 min) is reported as 84.
B25 was tested, and the counts minus background (counts per 20 min) was 81.
B26 was tested, and the counts minus background (counts per 20 min) was -31.
B27 showed a counts minus background (counts per 20 min) of -44.
B28 showed a counts minus background (counts per 20 min) of 367.
B29 was tested, and the counts minus background (counts per 20 min) was 293.
For B30, the counts minus background (counts per 20 min) was 53.
With B31 the counts minus background (counts per 20 min) was 71.
B32 gave a counts minus background (counts per 20 min) of 51.
With B33 the counts minus background (counts per 20 min) was 45.
B34 showed a counts minus background (counts per 20 min) of 65.
In the case of B35, the counts minus background (counts per 20 min) is reported as 616.
B36 showed a counts minus background (counts per 20 min) of 69.
With B37 the counts minus background (counts per 20 min) was 15.
B38 was tested, and the counts minus background (counts per 20 min) was 1520 and 1240.
Work on B39 yielded a counts minus background (counts per 20 min) of 36.
Work on B40 yielded a counts minus background (counts per 20 min) of 53.
B41 showed a counts minus background (counts per 20 min) of 23.
In the case of B42, the counts minus background (counts per 20 min) is reported as 200.
B43 showed a counts minus background (counts per 20 min) of 41.
B44 was tested, and the counts minus background (counts per 20 min) was 596.
Binder B45 has a counts minus background (counts per 20 min) of 18.
B46 was tested, and the counts minus background (counts per 20 min) was 524 and 434.
For B47, the counts minus background (counts per 20 min) was 62.
B48 showed a counts minus background (counts per 20 min) of 1960.
B49 gave a counts minus background (counts per 20 min) of 40.
With B50 the counts minus background (counts per 20 min) was 282.
In the case of B51, the counts minus background (counts per 20 min) is reported as -25.
For B52, the counts minus background (counts per 20 min) was 705.
B53 gave a counts minus background (counts per 20 min) of 69.
For B54, the counts minus background (counts per 20 min) was 90.
Work on B55 yielded a counts minus background (counts per 20 min) of 118.
B56 gave a counts minus background (counts per 20 min) of 173.
B57 showed a counts minus background (counts per 20 min) of 87.
For B58, the counts minus background (counts per 20 min) was -28.
B59 gave a counts minus background (counts per 20 min) of 252.
B60 was tested, and the counts minus background (counts per 20 min) was 64.
In the case of B61, the counts minus background (counts per 20 min) is reported as 2590.
For B62, the counts minus background (counts per 20 min) was -8.
B63 was tested, and the counts minus background (counts per 20 min) was 84.
B64 gave a counts minus background (counts per 20 min) of 138.
B65 was tested, and the counts minus background (counts per 20 min) was 70.
